According to patent US20240400720A1 (NOVIMMUNE S A, published 2024):
One block for each binder: values may come before it.

Columns and labels:
[1] = biological target: T1, human CD47 on the cell surface (human, UniProt Q08722 19-323); experiment: CD47-SIRPα competitive binding assay: His-tagged soluble human SIRPα (200 ng/ml) on hCD47-transfected CHO cells, antibody 3.3 pM-330 nM; blocked ligand SIRPα
T1 construct: whole, on cells; also called huCD47; native CD47

human CD47 [2] = biological target: T2, human CD47 (human, UniProt Q08722 19-141, limits assumed); experiment: screening of Examples 3 to 6
T2 construct: also called hCD47

human CD19 = biological target: T3, human CD19 (human, UniProt P15391 20-291, limits assumed); experiment: affinity maturation of B7
T3 construct: also called hCD19
T3 sequence (looked up): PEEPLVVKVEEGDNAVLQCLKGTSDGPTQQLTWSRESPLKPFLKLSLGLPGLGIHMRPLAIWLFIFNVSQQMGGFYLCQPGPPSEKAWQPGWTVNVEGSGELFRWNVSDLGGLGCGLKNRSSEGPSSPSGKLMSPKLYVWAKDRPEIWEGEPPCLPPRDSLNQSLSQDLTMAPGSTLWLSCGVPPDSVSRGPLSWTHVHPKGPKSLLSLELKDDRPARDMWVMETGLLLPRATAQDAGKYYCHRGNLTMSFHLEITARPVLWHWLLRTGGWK

human CD19 on Raji cells [3] = biological target: T4, human CD19 on Raji cells (human, UniProt P15391 20-556); experiment: FACS on Raji cells (CD19-positive), dose-response
T4 construct: whole, on cells; also called native form of hCD19
T4 sequence (looked up): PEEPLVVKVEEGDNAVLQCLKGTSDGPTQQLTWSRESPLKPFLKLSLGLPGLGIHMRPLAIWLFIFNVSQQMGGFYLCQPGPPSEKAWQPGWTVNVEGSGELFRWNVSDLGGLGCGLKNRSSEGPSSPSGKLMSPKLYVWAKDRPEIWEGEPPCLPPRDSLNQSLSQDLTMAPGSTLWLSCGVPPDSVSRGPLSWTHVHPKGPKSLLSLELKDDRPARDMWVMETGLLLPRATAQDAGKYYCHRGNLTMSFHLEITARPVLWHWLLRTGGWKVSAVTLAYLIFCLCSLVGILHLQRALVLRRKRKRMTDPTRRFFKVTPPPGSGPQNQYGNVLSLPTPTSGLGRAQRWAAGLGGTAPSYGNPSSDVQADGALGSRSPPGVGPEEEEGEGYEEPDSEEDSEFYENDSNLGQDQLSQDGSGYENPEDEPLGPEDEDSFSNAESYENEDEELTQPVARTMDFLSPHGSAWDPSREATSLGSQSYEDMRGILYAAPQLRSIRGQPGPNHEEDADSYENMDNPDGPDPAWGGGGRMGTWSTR

[4] = biological target: T1, human CD47 on the cell surface; experiment: adsorption on erythrocytes: antibody in human whole blood, 30 min at 37 °C, antibody left in plasma measured by ELISA
Experimental: (§1) With more than 5 billion cells per ml of blood, and 25,000 CD47 molecules per cell, erythrocytes represent potentially the major antigen sink for CD47-binding antibodies. To assess the effect of erythrocyte adsorption, CD47 antibodies were incubated with whole blood. Following incubation, the fraction of CD47 antibodies remaining in the plasma was determined by ELISA.
(§2) In brief, 200 μl of whole blood containing an anti-coagulant was mixed with 20 μl of antibody ([…] in PBS) and incubated for 30 minutes at 37° C. with shaking. The plasma was then separated from the cells by centrifugation, and the concentration of unbound antibody determined by ELISA.

human CD47 [5] = biological target: T2, human CD47; experiment: surface plasmon resonance
human CD47 [6] = biological target: T2, human CD47; experiment: CD47/SIRPα binding assay, inhibition of SIRPα binding to CD47; format not stated for this figure
[7] = biological target: T1, human CD47 on the cell surface; experiment: flow cytometry, CHO cells stably transfected with human CD47, antibody 10 µg/ml, Cy-5 anti-human Fc; non-transfected CHO cells as control
Experimental: Non-transfected CHO cells were used as control. In brief, purified CD47 Mabs were incubated with CHO-huCD47 cells at a final concentration of 10 μg/ml for 30 minutes. After two washes, bound CD47 antibodies were detected using a Cy-5 conjugated anti-human Fc secondary antibody (BD biosciences).

human CD47 [8] = biological target: T2, human CD47; experiment: affinity maturation by phage display on hCD47; positive in hCD47-SIRPα inhibition screen, reformatted as IgG
[9] = biological target: T5, cynomolgus monkey CD47 on CD4+ T cells (cynomolgus monkey, UniProt A0A5F8AK49 19-323 (rhesus entry)); experiment: flow cytometry on CD4+ T cells in cynomolgus PBMC
T5 construct: whole, on cells; also called cynomolgus CD47

human CD47 [10] = biological target: T2, human CD47; experiment: affinity ranking told with the hemagglutination test
Experimental: CD47 MAbs were tested for their ability to induce homotypic clustering of erythrocytes (hemagglutination). 10 microliters of human whole blood was diluted in 40 microliters of antibody solution in PBS at different concentrations (range: 0.003 microg/ml to 50 microg/ml final Mab concentration) in flat-bottom 96 well plates. The blood-antibody mix was incubated O/N at 37° C. without shaking. At the end of the incubation, the plates were agitated manually, tilted at about […], and let to rest for about 10 minutes.

human CD19 on Raji cells [11] = biological target: T4, human CD19 on Raji cells; experiment: FACS on Raji cells (CD19-positive, CD47-positive), human IgG1 format, 0.01-10 µg/ml; both targets are on the cells, the filing ascribes the binding to co-engagement driven mainly by the CD19 arm
Experimental: (§3) The graphs in FIGS. 9A-9C present FACS profiles generated with monovalent and bispecific antibodies binding to CD19-negative B-NHL cells (DS-1) and CD19-positive Burkitt lymphoma cells (Raji). All antibodies were human IgG1 format and were tested at four concentrations as indicated.
(§4) Two types of cells were used, a CD19-positive Burkitt lymphoma cell line Raji (expressing about 65,000 CD47 molecules per cell) and the CD19-negative B-NHL cell line DS-1 (expressing about 150,000 CD47 molecules per cell) as a control.

[12] = biological target: T1, human CD47 on the cell surface; experiment: FACS on DS-1 cells (CD19-negative, CD47-positive), human IgG1 format, 0.01-10 µg/ml
Experimental: as §3, §4

[13] = biological target: T1, human CD47 on the cell surface; experiment: adsorption on erythrocytes: antibody 10 µg/ml in human whole blood, 30 min at 37 °C, antibody left in plasma measured by ELISA
Experimental: as §1, §2

binding result [1]: binds | binding result (human CD47 [2]): binds
B1: Kc4 antibody (antibody, human IgG1, lambda, V domains shown)
VH: not shown
VL: QSALTQPASVSGSPGQSITISCTGTSSDVGGYNYVSWYQQHPGKAPKLMIYEVSNRPSGVSNRFSGSKSGNTASLTISGLQAEDEADYYCSSYDWWFRPKVFGGGTKLTVLG
notes: IgG, lambda (IGVL2-14)

binding result (human CD19): binds | binding result (human CD19 on Raji cells [3]): binds
B2: D11 antibody (antibody, human IgG1, lambda, V domains shown)
VH: not shown
VL: NFMLTQPHSVSESPGKTVTISCTRSSGSIDDKFVQWYQQRPGSSPTTVIYYDNIRPSGVPDRFSGSIDSSSNSASLTISGLKTEDEADYYCQSYDASLYGWVFGGGTKLTVLG
notes: anti-CD19, IgG, lambda; also called L7B7_D11

binding result [4]: no binding (tested: 10 µg/ml) | EC50 (read off the curve) (human CD19 on Raji cells [3]): ~0.4 nM
B3: C2 antibody (antibody, human IgG1, lambda, V domains shown)
VH: not shown
VL: NFMLTQPHSVSESPGKTVTISCTRSSGSIEDKYVQWYQQRPGSSPTIVIYYDNERPSGVPDRFSGSIDSSSNSASLTISGLKTEDEADYYCQTYDQSLYGWVFGGGTKLTVLG
notes: anti-CD19, IgG, lambda; also called L7B7_C2; L7B7_c2

Kd (human CD47 [5]): ~23.6 nM | IC50 (read off the curve) (human CD47 [6]): ~0.08 nM
B4: 5A3 antibody (antibody, human IgG1, kappa, V domains shown)
VH: not shown
VL: DIQMTQSPSSLSASVGDRVTITCQASQDINKYLNWYQQKPGKAPKLLIYGASRLETGVPSRFSGSGSGTDFTFTISSLQPEDIATYYCQQKHPRGPRTFGQGTKVEIKR
notes: IgG, common heavy chain, kappa light chain

binding result [1]: binds | binding result (human CD47 [2]): binds
B5: Ka3 antibody (antibody, human IgG1, kappa, V domains shown)
VH: not shown
VL: DIQMTQSPSSLSASVGDRVTITCRASQSISSYLNWYQQKPGKAPKLLIYAASSLQSGVPSRFSGSGSGTDFTLTISSLQPEDFATYYCQQMHPRAPKTFGQGTKVEIKR
notes: IgG, kappa (IGVK1-39)

binding result [7]: binds | binding result (human CD47 [8]): binds
B6: Ke8A2 antibody (antibody, human IgG1, kappa, V domains shown)
VH: not shown
VL: DIQMTQSPSSLSASVGDRVTITCRASQSIDRYLNWYQQKPGKAPKLLIYAASSLQSGVPSRFSGSGSGTDFTLTISSLQPEDFATYYCQQKHPRGPRTFGQGTKVEIKR
notes: IgG; also called KE8-P2A2; KE8A25

binding result [1]: binds | binding result [9]: no binding (tested: 0.005 mg/ml) | binding result (human CD47 [2]): binds
B7: Ke8 antibody (antibody, human IgG1, kappa, V domains shown)
VH: not shown
VL: DIQMTQSPSSLSASVGDRVTITCRASQSISSYLNWYQQKPGKAPKLLIYAASSLQSGVPSRFSGSGSGTDFTLTISSLQPEDFATYYCQQFHKRRPQTFGQGTKVEIKR
notes: IgG, kappa (IGVK1-39)

Kd (human CD47 [5]): ~2840 nM | IC50 (read off the curve) (human CD47 [6]): ~3 nM
B8: 5A3-M5 antibody (antibody, human IgG1, kappa, V domains shown)
VH: not shown
VL: DIQMTQSPSSLSASVGDRVTITCQASQDINKYLNWYQQKPGKAPKLLIYGASRLETGVPSRFSGSGSGTDFTFTISSLQPEDIATYYCQQKHPRYPRTFGQGTKVEIKR
notes: IgG, variant of 5A3 with changed VL

binding result [1]: binds | binding result (human CD47 [10]): binds
B9: Ke8A3 antibody (antibody, human IgG1, kappa, V domains shown)
VH: not shown
VL: DIQMTQSPSSLSASVGDRVTITCRVSQSISKYLNWYQQKPGKAPKLLIYAASSLQSGVPSRFSGSGSGTDFTLTISSLQPEDFATYYCQQRHPRGPSTFGQGTKVEIKR
notes: IgG

binding result (human CD19 on Raji cells [11]): binds | binding result [12]: binds
B10: 5A3M5xC2 (bispecific antibody, human IgG1, kappa, lambda)
common heavy chain: not shown
kappa light chain (5A3-M5, anti-CD47): not shown
lambda light chain (C2, anti-CD19): NFMLTQPHSVSESPGKTVTISCTRSSGSIEDKYVQWYQQRPGSSPTIVIYYDNERPSGVPDRFSGSIDSSSNSASLTISGLKTEDEADYYCQTYDQSLYGWVFGGGTKLTVLGQPKAAPSVTLFPPSSEELQANKATLVCLISDFYPGAVTVAWKADSSPVKAGVETTTPSKQSNNKYAASSYLSLTPEQWKSHRSYSCQVTHEGSTVEKTVAPTECS
notes: also called CD47xCD19 BsAb 5A3M5xC2; bispecific antibody 5A3-M5×C2

binding result (human CD19 on Raji cells [11]): binds
B11: Ke8G11xC2 (bispecific antibody, human IgG1, kappa, lambda)
common heavy chain: not shown
kappa light chain (Ke8G11, anti-CD47): DIQMTQSPSSLSASVGDRVTITCRASQSIGRYLNWYQQKPGKAPKLLIYAASSLQSGVPSRFSGSGSGTDFTLTISSLQPEDFATYYCQQMHPRGPKTFGQGTKVEIKRTVAAPSVFIFPPSDEQLKSGTASVVCLLNNFYPREAKVQWKVDNALQSGNSQESVTEQDSKDSTYSLSSTLTLSKADYEKHKVYACEVTHQGLSSPVTKSFNRGEC
lambda light chain (C2, anti-CD19): NFMLTQPHSVSESPGKTVTISCTRSSGSIEDKYVQWYQQRPGSSPTIVIYYDNERPSGVPDRFSGSIDSSSNSASLTISGLKTEDEADYYCQTYDQSLYGWVFGGGTKLTVLGQPKAAPSVTLFPPSSEELQANKATLVCLISDFYPGAVTVAWKADSSPVKAGVETTTPSKQSNNKYAASSYLSLTPEQWKSHRSYSCQVTHEGSTVEKTVAPTECS
notes: also called CD47xCD19 BsAb Ke8G11xC2; bispecific antibody Ke8G11×C2

binding result (human CD19 on Raji cells [11]): binds | binding result [12]: binds
B12: Ka3xC2 (bispecific antibody, human IgG1, kappa, lambda)
common heavy chain: not shown
kappa light chain (Ka3, anti-CD47): not shown
lambda light chain (C2, anti-CD19): NFMLTQPHSVSESPGKTVTISCTRSSGSIEDKYVQWYQQRPGSSPTIVIYYDNERPSGVPDRFSGSIDSSSNSASLTISGLKTEDEADYYCQTYDQSLYGWVFGGGTKLTVLGQPKAAPSVTLFPPSSEELQANKATLVCLISDFYPGAVTVAWKADSSPVKAGVETTTPSKQSNNKYAASSYLSLTPEQWKSHRSYSCQVTHEGSTVEKTVAPTECS
notes: m75 has the same CD47 arm but no named CD19 arm; also called CD47xCD19 BsAb Ka3xC2; bispecific antibody Ka3×C2

binding result [13]: binds
B13: 5A3M3xC2 (bispecific antibody, human IgG1, kappa, lambda)
common heavy chain: not shown
kappa light chain (5A3-M3, anti-CD47): not shown
lambda light chain (C2, anti-CD19): NFMLTQPHSVSESPGKTVTISCTRSSGSIEDKYVQWYQQRPGSSPTIVIYYDNERPSGVPDRFSGSIDSSSNSASLTISGLKTEDEADYYCQTYDQSLYGWVFGGGTKLTVLGQPKAAPSVTLFPPSSEELQANKATLVCLISDFYPGAVTVAWKADSSPVKAGVETTTPSKQSNNKYAASSYLSLTPEQWKSHRSYSCQVTHEGSTVEKTVAPTECS
notes: m69 has the same CD47 arm but no named CD19 arm; also called bispecific antibody 5A3-M3×C2
